B1: Guanyl-specific ribonuclease T1, P00651 (parent)
chain: MMYSKLLTLTTLLLPTALALPSLVERACDYTCGSNCYSSSDVSTAQAAGYQLHEDGETVGSNSYPHKYNNYEGFDFSVSSPYYEWPILSSGDVYSGGSPGADRVVFNENNQLAGVITHTGASGNNFVECT

Variants of: B1
Details: Aspergillus oryzae (strain ATCC 42149 / RIB 40); pH 5; 10 °C; GdnHCl; Fluorescence; Sodium acetate 0.1 M; reversible: yes; structure 1RN1; whole UniProt chain shown

Variant	ddG of mutation (higher = less stable) [kcal/mol]	denaturant m value [kcal/mol/M]	denaturant midpoint (higher = more stable) [M]
P99V	-1.53	3.01	3.43

Same assay, conditions: Aspergillus oryzae (strain ATCC 42149 / RIB 40); pH 8; 10 °C; GdnHCl; Fluorescence; PIPES 0.1 M; reversible: yes; structure 1RN1; whole UniProt chain shown

Variant	ddG of mutation (higher = less stable) [kcal/mol]	denaturant m value [kcal/mol/M]	denaturant midpoint (higher = more stable) [M]
P99V	-2.44	3.18	2.44

Same assay, conditions: Aspergillus oryzae (strain ATCC 42149 / RIB 40); pH 8; 25 °C; GdnHCl; Fluorescence; PIPES 0.1 M; reversible: yes; structure 1RN1; whole UniProt chain shown

Variant	ddG of mutation (higher = less stable) [kcal/mol]	denaturant m value [kcal/mol/M]	denaturant midpoint (higher = more stable) [M]
P99V	-2.01	2.7	1.66

Reference: FireProtDB (doi:10.1111/j.1432-1033.1996.00516.x)
